Our source for the Peptide exchange values is patent publication US12195506B2, “Immunotherapy with A*01 restricted peptides and combination of peptides against cancers and related methods” (Immatics Biotechnologies GmbH, priority 2018, dated 2025).

The target in the assay is HLA-A*01:01 (Homo sapiens, UniProt P04439, A114D/A174V/A182V/D101N/D185E/E176A/E190D/L180R/Q94H/R68K/S129P/T187R/V100A/V91M/W191G). Kind of assay: MHC binding assay: UV-ligand exchange, ELISA of stabilized MHC complexes (peptide exchange yield). The note with it: binding to HLA-A*01:01, UV-ligand exchange. An excerpt:
Candidate peptides for T cell based therapies according to the present invention were further tested for their MHC binding capacity (affinity). The individual peptide-MHC complexes were produced by UV-ligand exchange, where a UV-sensitive peptide is cleaved upon UV-irradiation and exchanged with the peptide of interest as analyzed. Only peptide candidates that can effectively bind and stabilize the peptide-receptive MHC molecules prevent dissociation of the MHC complexes. To determine the yield of the exchange reaction, an ELISA was performed based on the detection of the light chain (β2m) of stabilized MHC complexes. The assay was performed as generally described in Rodenko et al. (Rodenko et al., 2006)
96 well MAXISorp plates (NUNC) were coated over night with 2 ug/ml streptavidin in PBS at room temperature, washed 4× and blocked for 1 h at 37° C. in 2% BSA containing blocking buffer. Refolded HLA-A*02:01/MLA-001 monomers served as standards, covering the range of 15-500 ng/ml. Peptide-MHC monomers of the UV-exchange reaction were diluted 100-fold in blocking buffer. Samples were incubated for 1 h at 37° C., washed four times, incubated with 2 ug/ml HRP conjugated anti-β2m for 1 h at 37° C., washed again and detected with TMB solution that is stopped with […]. Absorption was measured at 450 nm.
On the technique in general: An ELISA detects its analyte on a solid surface through an enzyme-linked reagent.
As for “1 (TLDSTRTLY; listed as Homo sapiens) [compound 1]”, the Peptide exchange result is given as “++++ (>75% = ++++)”.
To “2 (VDPIGHLY; listed as Homo sapiens) [compound 2]” belongs “++ (>20% = ++)”; to “3 (FGTTPAAEYF; listed as Homo sapiens) [compound 3]”, “++ (>20% = ++)”.
As for “4 (RIEAIRAEY; listed as Homo sapiens) [compound 4]”, the Peptide exchange result is “++ (>20% = ++)”.
To “5 (FMVIAGMPLFY; listed as Homo sapiens) [compound 5]” belongs “+++ (>50 = +++)”; to “6 (ARDPITFSF; listed as Homo sapiens) [compound 6]”, “++ (>20% = ++)”; to “7 (ASDDVRIEVGLY; listed as Homo sapiens) [compound 7]”, “++++ (>75% = ++++)”.
With “8 (TSRAANIPGY; listed as Homo sapiens) [compound 8]”, the Peptide exchange entry is listed as “+ (>10% =+)”.
Next, “9 (QLDSTLDSY; listed as Homo sapiens) [compound 9]”: “+++ (>50 = +++)”; “13 (NTHTGTRPY; listed as Homo sapiens) [compound 13]”: “++ (>20% = ++)”.
Next, “14 (QSEKEPGQQY; listed as Homo sapiens) [compound 14]”: “+++ (>50 = +++)”.
Next, “15 (YLDSSKPAVY; listed as Homo sapiens) [compound 15]”: “+++ (>50 = +++)”; “16 (NSDISIPEY; listed as Homo sapiens) [compound 16]”: “+++ (>50 = +++)”; “17 (ASWAVLCYY; listed as Homo sapiens) [compound 17]”: “+++ (>50 = +++)”.
For the substance “20 (LSAQHRMLA; listed as Homo sapiens) [compound 20]”, the Peptide exchange entry is “++ (>20% = ++)”.
To “21 (LSSAVNPIIY; listed as Homo sapiens) [compound 21]” belongs “++ (>20% = ++)”; to “22 (VMDTLGLFY; listed as Homo sapiens) [compound 22]”, “++++ (>75% = ++++)”; to “23 (DTDPLKAAGL; listed as Homo sapiens) [compound 23]”, “+ (>10% =+)”.
For “25 (AMMQEAQLAY; listed as Homo sapiens) [compound 25]”, the Peptide exchange result is “+++ (>50 = +++)”.
In the case of “28 (PSEVPVDSHYY; listed as Homo sapiens) [compound 28]”, the Peptide exchange result is “+++ (>50 = +++)”.
To “29 (TLEDLDNLYNY; listed as Homo sapiens) [compound 29]” belongs “+++ (>50 = +++)”; to “30 (VTTDKPRAY; listed as Homo sapiens) [compound 30]”, “++ (>20% = ++)”.
Next, “31 (VSDHLQAGMLGQY; listed as Homo sapiens) [compound 31]”: “+++ (>50 = +++)”; “32 (GTDKQNSTLRY; listed as Homo sapiens) [compound 32]”: “+++ (>50 = +++)”; “34 (SSWSAGENDSY; listed as Homo sapiens) [compound 34]”: “+++ (>50 = +++)”.
Next, “35 (SWSAGENDSYS; listed as Homo sapiens) [compound 35]”: “+ (>10% =+)”.
Turning to “36 (MTSTEQSLY; listed as Homo sapiens) [compound 36]”, the Peptide exchange result was “+++ (>50 = +++)”.
To “38 (KSWSQSSSLMY; listed as Homo sapiens) [compound 38]” belongs “+++ (>50 = +++)”; to “39 (WSQSSSLMY; listed as Homo sapiens) [compound 39]”, “++++ (>75% = ++++)”; to “40 (TSDQLGYSY; listed as Homo sapiens) [compound 40]”, “+++ (>50 = +++)”.
Regarding “41 (HSDLLEDSKY; listed as Homo sapiens) [compound 41]”, the Peptide exchange entry is listed as “+++ (>50 = +++)”.
With “43 (ETEPERHLGSY; listed as Homo sapiens) [compound 43]”, the Peptide exchange result is “+++ (>50 = +++)”.
To “44 (IPSFNEMVY; listed as Homo sapiens) [compound 44]” belongs “++ (>20% = ++)”; to “45 (NLDPNKIY; listed as Homo sapiens) [compound 45]”, “+ (>10% =+)”; to “46 (RSDPGGGGLAYAAY; listed as Homo sapiens) [compound 46]”, “++++ (>75% = ++++)”.
Next, “47 (WSDGVPLLY; listed as Homo sapiens) [compound 47]”: “++++ (>75% = ++++)”; “48 (FTTQDELLVY; listed as Homo sapiens) [compound 48]”: “+++ (>50 = +++)”; “49 (GSFSIQHTY; listed as Homo sapiens) [compound 49]”: “++ (>20% = ++)”.
To “50 (ITDEDEDMLSY; listed as Homo sapiens) [compound 50]” belongs “+++ (>50 = +++)”; to “51 (STEERRLNY; listed as Homo sapiens) [compound 51]”, “+++ (>50 = +++)”; to “52 (TTQDELLVY; listed as Homo sapiens) [compound 52]”, “+++ (>50 = +++)”.
For the substance “55 (ATEGDVLNY; listed as Homo sapiens) [compound 55]”, the Peptide exchange entry is given as “+++ (>50 = +++)”.
To “56 (VTEYAEEIYQY; listed as Homo sapiens) [compound 56]” belongs “+++ (>50 = +++)”; to “57 (ASDPASSTSCY; listed as Homo sapiens) [compound 57]”, “+++ (>50 = +++)”.
For “58 (YLENSASWY; listed as Homo sapiens) [compound 58]”, the Peptide exchange entry is on record as “++++ (>75% = ++++)”.
Consider “59 (FTDSQGNDIK; listed as Homo sapiens) [compound 59]”, for which the Peptide exchange result was “+++ (>50 = +++)”.
To “62 (VSELVTTGHY; listed as Homo sapiens) [compound 62]” belongs “+++ (>50 = +++)”.
To “63 (TSEISQNALMY; listed as Homo sapiens) [compound 63]” belongs “++++ (>75% = ++++)”; to “65 (SSDFDPLVY; listed as Homo sapiens) [compound 65]”, “++++ (>75% = ++++)”; to “67 (NVDQNQNSY; listed as Homo sapiens) [compound 67]”, “+++ (>50 = +++)”.
As to “68 (QSLPEFGLTY; listed as Homo sapiens) [compound 68]”, the Peptide exchange result is recorded as “++ (>20% = ++)”.
For “69 (QSLPEFGLTYY; listed as Homo sapiens) [compound 69]”, the Peptide exchange entry is listed as “++ (>20% = ++)”.
Next, “72 (VTDSTTKIAY; listed as Homo sapiens) [compound 72]”: “+++ (>50 = +++)”.
On to “74 (EMEQQSQEY; listed as Homo sapiens) [compound 74]”, for which the Peptide exchange result is given as “++++ (>75% = ++++)”.
Next, “76 (QTDVERIKDTY; listed as Homo sapiens) [compound 76]”: “+++ (>50 = +++)”.
Next, “78 (QLDSAVKNLY; listed as Homo sapiens) [compound 78]”: “+++ (>50 = +++)”.
On to “80 (ELCPLPGTSAY; listed as Homo sapiens) [compound 80]”, for which the Peptide exchange entry is recorded as “++ (>20% = ++)”.
With “85 (SSDNYEHWLY; listed as Homo sapiens) [compound 85]”, the Peptide exchange result was “++++ (>75% = ++++)”.
To “86 (VDPASNTY; listed as Homo sapiens) [compound 86]” belongs “++ (>20% = ++)”.
Next, “87 (AFDDIATYF; listed as Homo sapiens) [compound 87]”: “++ (>20% = ++)”; “88 (KEVDPAGHSYI; listed as Homo sapiens) [compound 88]”: “++ (>20% = ++)”; “89 (EVYDGREHSAY; listed as Homo sapiens) [compound 89]”: “++ (>20% = ++)”.
As to “90 (YEDHFPLLF; listed as Homo sapiens) [compound 90]”, the Peptide exchange result is listed as “++ (>20% = ++)”.
Regarding “92 (TTDDTTAMASAS; listed as Homo sapiens) [compound 92]”, the Peptide exchange result was “++ (>20% = ++)”.
Next, “93 (HLKILSPIY; listed as Homo sapiens) [compound 93]”: “+++ (>50 = +++)”; “94 (KPSAVKDSIY; listed as Homo sapiens) [compound 94]”: “++ (>20% = ++)”.
“95 (SSDPKAVMF; listed as Homo sapiens) [compound 95]”: the Peptide exchange entry is on record as “++ (>20% = ++)”.
For “97 (FPAPPAHWFY; listed as Homo sapiens) [compound 97]”, the Peptide exchange result is given as “++ (>20% = ++)”.
For “98 (NFSDLVFTY; listed as Homo sapiens) [compound 98]”, the Peptide exchange result is “++ (>20% = ++)”.
